Usually stoichiometry N stands for a count of units in the complex or per binding partner.

The data set deals with the molecule itself. Put plainly: crystal structure; sitting-drop vapor diffusion at 20 °C; optimized crystals from 2.4 M ammonium sulfate, 0.1 M citric acid pH 3.5; space group P3(1)21; 2.8 Å; apo form; dimer in the asymmetric unit.

B1: Saccharomyces cerevisiae phosphoserine aminotransferase (enzyme, S. cerevisiae, UniProt P33330 1-395, looked up)
chain: MSLEREEPQHFGAGPAQMPTPVLQQAAKDLINFNDIGLGIGEISHRSKDATKVIEDSKKHLIELLNIPDTHEVFYLQGGGTTGFSSVATNLAAAYVGKHGKIAPAGYLVTGSWSQKSFEEAKRLHVPAEVIFNAKDYNNGKFGKIPDESLWEDKIKGKAFSYVYLCENETVHGVEWPELPKCLVNDPNIEIVADLSSDILSRKIDVSQYGVIMAGAQKNIGLAGLTLYIIKKSILKNISGASDETLHELGVPITPIAFDYPTVVKNNSAYNTIPIFTLHVMDLVFQHILKKGGVEAQQAENEEKAKILYEALDANSDFYNVPVDPKCRSKMNVVFTLKKDGLDDQFLKEAAARHLTGLKGHRSVGGFRASIYNALSVKAVQNLVDFIKEFAEKNA
notes: Phosphoserine aminotransferase (PSAT) of S. cerevisiae, encoded by SER1; full-length gene amplified from genomic DNA and cloned into pET28a; residues 1-395 (large domain 54-293, small domain 294-395); apo form without PLP; residues 1-53, 218-220 and 268-271 not modelled in the crystal structure; they may come from different strains; also called ScPSAT; PSAT; source: E. coli BL21 (DE3) Star, …
On to B1, for which the “stoichiometry N” value turned out to be 2.
